# Laboratory results reported in the nanobody polyreactivity screen of Harvey et al. (2022).
# Assay: yeast display, Sf9 membrane polyspecificity reagent, FACS + sequencing; frameworks hold sequencing errors
# In short: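 After 36–48 hours of galactose induction, yeast (Saccharomyces cerevisiae BJ5465) displaying a synthetic nanobody library were stained at 4 °C for 1 hour with 10% biotinylated, detergent-solubilized Sf9 membrane reagent. Streptavidin microbeads enriched the stained cells before FACS sorting into low and high (top ~1%) gates on anti-HA and streptavidin fluorescence. Each clone's polyreactivity label reflects its gate of origin.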
row,Sequence,polyreactivity (PSR sort gate)
1,QVQLVESGGGLVQAGGSLRLSCASSGFTFYKYVMGGYRQDPGKEREMVAASSRSGGSTYYADSVKGRFTISRDNAKNTVYLQMNSLIPEDTAVYSCAKDSCGAPEGPYDYWGQGTQVTVSS,high polyreactivity
2,QVQLVESGGGLVQAGGSLRLSCASSGFTFYSYDMGWYRQAPGKERELVAAITWYGGSTYYADSVKGRFTISRDNAKNTVYLQMKSLKQEDTAVYYCAAELFPLQHFWVAYATRRYDYWGQCTQVTVSS,low polyreactivity
3,QVQLVESGGGLVQAGGSLRLSCASSGFTLGYYTMGWYRQAPGKESELVAAIRSNGGSTYYADSVKGRFTISRDNAKNTVYLQMNSLKPEDTAVYYCAARRWRYVGTRYDYWGQGTQVTVSS,high polyreactivity
4,QVQLVESGGGLVQAGGSLRLSCASSGGIFYSYDMGWYRQAPGKERELVAAITWIGGSTYYADSVKGRFTISRDNAKNTVYFQMNSLKPEDTAVYYCAAEILWGGYDYWGQGTQVSVSS,low polyreactivity
5,QVQLVESGGGLVQAGGSLRLSCASSGGTFISYAMGWYRQAPGKERELVAAISRGGSSTYYADSVKGRFTISRDNAKNTVYLQMNSLKPEDTAVYYCNKAYHRRDSEFGYWGQGTQVTVSS,high polyreactivity
6,QVQLVESGGGLVQAGGSLRLSCASSGIIFYAYAMGWYRQAPGKERELVAAINFNTGRTYYADSVKGRFTISRDNAKNTVYLQMNSLKPEDTAVYYCAKSSYRNSGERDYWGQGTQVTVSS,high polyreactivity
7,QVQLVESGGGLVQAGGSLRLSCASSGITFWSYAMVWYRQAPGKERELVAAISRGGDSTYYADSVKGRFTISRDNAKNTVYLQMNSLKPEDTAVYDCAALRPREEYYWGHGTQVTVSS,high polyreactivity
8,QVQLVESGGGLVQAGGSLRLSCASSGITLYGYAMGWYRQAPGKEREFVAAISRSGDRTYYADSVKGRFTISRDNAMNTVYLQMNSLKPEDTAVYYCNAWRYDYWGQGTQVTVSS,high polyreactivity
9,QVQLVESGGGLVQAGGSLRLSCASSGLILAPNDMGWYRQAPGKERELVAAITFRGVRTYYADSVKGRFTISRDNAKNNVYLQLNSLKPEDTAVYYCAAAVSKHYPYNYWGQGTQVSVSS,high polyreactivity
10,QVQLVESGGGLVQAGGSLRLSCASSGPIFAYNAIPGYRQAPGKERELVADISSGGNTYYADSVKGRFTISRDNAKNTVYLQMNSLKPEDTAVYYCAADIAWYTHDHRIFDYWGQGTQVTVSS,low polyreactivity
11,QVQLVESGGGLVQAGGSLRLSCASSGRIFDQYAMGWYRQAPGKERELVAAISSDDGSTYYADSVKGRFTISRDNAKNTVYLQMNSLKPEDTAVYYCAADAWRYVDYDYWGQGTQVTVSS,low polyreactivity
12,QVQLVESGGGLVQAGGSLRLSCASSGRIFGSYAMGWYRQAPGKERELVAAISWRGTSTYYADSVKGRFTISRDNAKNTVYLQMNSLKPEDTAVYYCAARGLWPYDYWGQGTQVTVSS,low polyreactivity
13,QVQLVESGGGLVQAGGSLRLSCASSGRIFLTNAMGWYRQAPGKERELVAAITSGGSTYYADSVKGRFTISRDNAKNTVFLQMNSLKPEDTAVYYCIADTDRYWPYEYDYWGQGTQVTVSS,low polyreactivity
14,QVQLVESGGGLVQAGGSLRLSCASSGRIFNRYAMGWYRQAPGKERELVAAISSRGGSTYYADSVKGRFTISRDNAKNTVYLPMNSLKPEDTAVYYCAASAQKASYDWRYDYWGQGTQVTVSS,high polyreactivity
15,QVQLVESGGGLVQAGGSLRLSCASSGRIFRNNVMGWYRQAHGKVRELVAAISATGTITRYADSVKGSFTISRDYSKNTVYLQMNSLKPEDTAVYYCAKDRGWWLGFIMDYWGQGSQVTVSS,low polyreactivity
16,QVQLVESGGGLVQAGGSLRLSCASSGRIFRYYAMGWYRQAPGKERELVAAINWSGGSTYYADSVKGRFTISRDNAKNTVYLQMNSLNPEDTAVYYCYRRAYIRYDSSSLDYWGQGTQVTVSS,low polyreactivity

row,Sequence,polyreactivity (PSR sort gate)
1,QVQLVESGGGLVQAGGSLRLSCASSGRIFSGYAMGSYRQAPAKERELVATITSGGGTYYADSVKGRFTISRDNAKNTVYFQMNSLKPEDTAVYYCNAEKKGSFRKYNYWGQGTQVTVSS,low polyreactivity
2,QVQLVESGGGLVQAGGSLRLSCASSGRIFSNYAMGWYRQAPGKERELVAAISWRTSNTYYADSVKGRFTISRDNAKYTVYLQMNSQKPEDTAVYYCAKYRRFRPYGSNGIYDYWGQGTQVSVSS,high polyreactivity
3,QVQLVESGGGLVQAGGSLRLSCASSGRILYGSAMGWYRQAPGKERALVAAISWRSGSTYYADSVKGRFTISRDNAKNTVYLQMNSLKPEDTEVYYCAAGYGGYPGGYYWGQGTQVTVSS,high polyreactivity
4,QVQLVESGGGLVQAGGSLRLSCASSGRNFYSYVMGWYRQAPGKERELVAAITRSGGTTYYADSVKGRITISRDNAKNTVYLEMYSLKPEDTAVYYCAAYVGGIRYYSWGQGTQVIVSS,high polyreactivity
5,QVQLVESGGGLVQAGGSLRLSCASSGRTFEDYTMGWYRQAPGKVWEWVAAITGGGSTNYADSVKGRFTISRDNAKNTVYLQMYSQKPEDTAVYYCAAHYRYNWFRRYSYWGQGTQETVSS,high polyreactivity
6,QVQLVESGGGLVQAGGSLRLSCASSGRTFFQYAMGWYRQAPGKERELVAAIRWSDSTYYADSVKGRFTISRDNAKNTVYLQMNSLKPEDTAVYYCAAPRVSQYSTKKYDYWGQGTQVTVSS,low polyreactivity
7,QVQLVESGGGLVQAGGSLRLSCASSGRTFLRYTMGWYRQAPGKERELVAAISYRGGTTYYADSVKGRFTISRDNGKNTVYLEMNSMKADETGVYYCAARNVGRTGSDFWGQGTQVTVSS,low polyreactivity
8,QVQLVESGGGLVQAGGSLRLSCASSGRTFRRYAMGWYRQAPGKERELVAAITWSGGSTYYADSVKGRFTFSRDYGKNTVYLQMNSLKPADTAEYYCAVSPLYSTSYYGLRKGYYWGQGTQVTVSS,high polyreactivity
9,QVQLVESGGGLVQAGGSLRLSCASSGRTFRYYTMGWYRQAPGKEREFVAAISSTGGTYYADSVKGRFTISRDNAKNTVYFQMNSLIPVDTAVYYCAATFIKVVVNVQLYDYDYWGQGTQVTVSS,low polyreactivity
10,QVQLVESGGGLVQAGGSLRLSCASSGRTFSGYAMGWYRQAPGKERELVASITWSGGSTYYADSVKGRFTISRDNAKNTVYLQMNSLKPDDTAVYYCARDSPRGRVGFNYWGQGTQVTVSS,low polyreactivity
11,QVQLVESGGGLVQAGGSLRLSCASSGRTFSPYAMGWYRQAPGKERELVAAISSGGGNTYYADSVKGRITISRDNAKNTVYLQMNSLKPVDTAVYYCNAAQRRGGLGYWGLGTQVTVSS,high polyreactivity
12,QVQLVESGGGLVQAGGSLRLSCASSGRTFYDNTMGWYRQAPGKERELVAGISYSGGSTYYADSVKGRFTISRDNAKNTVYLQMNSLKPEDTAVYYCNAELYFPYFDGKTRHGGYWGQGTQVTVSS,low polyreactivity
13,QVQLVESGGGLVQAGGSLRLSCASSGRTFYIYAIGWYRQAAGKERELVASISRGGSTTYADSVKGRFTISRDNAKNTVYLQMNSLKPEDTAVYYCNARAYYDMNQWGQGTQVTVSS,low polyreactivity
14,QVQLVESGGGLVQAGGSLRLSCASSGRTFYIYDMGWYRQAPGKERELVAAITSVGSTNYADSVKGRFTISRDNAMNTVYLQMNSLKPEDTAVYYCAAESTVGTSGDYDYWGQGTQVTVSS,low polyreactivity
15,QVQLVESGGGLVQAGGSLRLSCASSGRTISSYAMGWYRQPPGKERELVAGISWRGGRTYYADSVKGRFTISRDNAKITVYLQMNSLKPEDTAVSYCAADRVRGGYRTYYWVVHLDYWGQGTQVTVSS,high polyreactivity
16,QVQLVESGGGLVQAGGSLRLSCASSGRTSVINAMGWYRQAPGKERELVATITWSGASTYYADSVKGRFTISRDNAKNTVYLQMNSLKPEDTAVYYCNAESLYTPYNDTSLTVEYGYWGQGTQVTVSS,low polyreactivity
